Test results reported in the DeepSol protein solubility set.

Assay: soluble on expression in E. coli; label from the status in PepcDB or PDB records

Soluble on expression in E. coli, not soluble:
MGSDKIHHHHHHMFLRNMWYVAAFSADVKPGKCLARTFLNEPVVLFRTASGSLGALIDRCSHRAMPLSEGHVDGDIIRCPYHGLEFNAAGVCAHIPGQERIPAAANVRSYPVSERDGLIWIWMGEPEKADLRSIMSNPEHRDPGWSWRPYYMHVNSNWQLLVDNILDLTHVAYIHANTIGGNPQTHFNADMSVQFDGEKVTLLRKMPNSVPPKTYVAAGGFKGNVDRWQMVEYRPCGGNVLRVNAGACEVGTGAYEGRRDNGFTLLNVHGVTPETETTTHYIWTICTDAPRESGVPDMLFDQFYETICEDERALEAQQRRINDMPDMRFVGIASDGAVSRARLLLERLHENETAVTS
MGSDKIHHHHHHMFMVKITILSPEGRSCSVWSLKNEIEKLGAKCDIFLLSSPENLMSHDFKLETDLIHSRCGIGDYFDRLTLYSWQFINALEVEGCRFINPIKTLYLTSDKFKCIKLLAKNKIKTPKTALIRDYEDAVKFIEKYNLRFPVVIKNSFSKCGLKVFMARNYDELKQLTKNAIWEGKLIQEFIDFKENDLYRDMRILVVDGEVVGGYRRVSRDFRTNLYLGNVVEKLNIDEELEELALKCADLSEAVILGVDILPTKDNYYVIELNSSPGTKGFRDIGINADKKIAEALVRYAKS
MGSDKIHHHHHHMFPLVTITGEPFERGQQYGAATAALIRHSIASYARLFAYRRGMDWEAVQQAALAYEPLLHDVAPDLLTEMRGIAVGASRTLAEIIALNVRTELLAGVGVGFHHPEAAAALARNRAAGVPQHQEQLPATPATGSDDGECTTAAASPPATANGRVWLAQTWDWQGDQRAACVLLRVSGPDTPTLLTLTEAGMVAKIGLNEAGIAVGLNLLRSRADGQQQGMPVHVLLRQMLQSTDTVTARRLVSQIPAAGSSCITLAGADGELVALELTPTGIAEIPAQEGLLAHANHCLDGGTAAGECPLEPTSTTRERYGRAWELLHAAAGQIDLDVLQVILRDHDGAPRCICRHPDPRVAAVDRNESVCGVIIDLRGRTMHVAANIPCQAPFVPFML
MGSDKIHHHHHHMFRRIREDLIKNHMEGPQGFRSMLAGWVECGFCTIVEDEIRFWNGSRIYLCHCKDEKDRFKYQGAEIHVLLIDELTHFTEVIYRFLRNRVRMVGIKLPAKYAGRFPRILCGANPGGIGHQFVKATFIDGATAMKVYTTEASEGGMRRQFIPAQLEDNPSMNDNDPGYENRLMGLGSESLVRAMRYGDWDVVEGAYFDNFERRRHVVKPFTIPDHWIRFRAGDWGSAKPFAFGWYVVASDDTIIAPGVVVPRGALVKYREWYGVKIDKSGKFLPDVGLKLHAEAVGAGVRQRDYDDIIVYGVLDPAAFSQDGGPSIAERMTRGTTGSNGSTFRRADNKRTAGRGAMGGWDQLRGRLTGDGDGRPMLFFFDTCIHTIRTLPALQHDEANPEDLDTKQEDHAADETRYACMSRPWIAKSKVPAPQVPEGHIALPGAPDEAAGNRRIRI
MGSDKIHHHHHHMFSLFETFIVVYETKSFTLAGKYLFISQPTVTVRIKKLEEELKSTLFLRGKHQEIIPTEAAILFYPKAIAYLKKWEEDQAEVQKKSLAKHPFKIGVSHSAALSIMPGIFKVFEGELEHLDVEINMYDSEKVFELVANHDLHFGIIERLLISDQTETFPLFLDELVLAGNTDSETFFTRESGSGIGYYIKRYLKSAPSAQRNIVRMNSNEMIISHIKAGLGSSLISKSFLTDDIPYQELGSNYHREFLGVSFDEEKDPMIQKLISKIKKETEIH
MGSDKIHHHHHHMFSQTIFFGMKQSARGVSVAFSTLQEASMHKRVLIQAASALLALQFMAVPVFAAGSSGGGSDQTVTQCKKGEVWDKKKKKCVAPQEGMLDDDSIYDAGHALAMAGRYDEAISVLTLAANKQDPRILNYLGYSHRHSGRVTVGLGYYEEALRIDPNYTLVREYLGEAHLQIGDLAGAQQQLMEIEKRTGKGSREYGMLSEQIDHFMRS
MGSDKIHHHHHHMFTSNQGAGRMNKEVGMDNPGLDVYLRDQKIGRLWLDDKRRFVFQYDSEWTHQKGAVPLSLHLPLREEIYPDDLARPFFSNLLPEAEVKRAIAQRLRISESNDFALLNSIGGECAGAVSVLPAGVAPAMKPGYRELSEEELHRIIIELPRRPLLAGVEGMRLSLAGAQNKLPVYMEDHRIFIATGNAPSSHILKPPIRDLEDTVGNEAFCMILAQRLGLQVPVVTIRRGLDRIFIIARYDRSRDTDGHIVRLHQEDFCQALGFLPEQKYENEGGPSLKQCFTLLQEKSIRPAADRMALLRWTIFNLLIGNDDAHAKNLAMIFTDRGPRLAPFYDLICTQVYPDLTEKQAMRIGGENRPSWILQKHWDRFSESTAIKPNLVLKTLKEMSAAIALAAQTLSSEFIKKYGTCTIIEEILAVIEKRAESV
MGSDKIHHHHHHMFVRVDISSLPLGKRMAQDIYDFDGHLLISKGIVVQESHLQQLRQRGYEYVYIQEEDEVNENSLNQGIAYLTDKQLPKAFSASVEGMRQMMDKVSSRHMIKLGEVEECIDLVYDHVLQTYNVLKHLQDLRNKDEYTLQHSVSVGILSIKIGQSLGLDADKLKNLGIAGLLHDIGKSMISLDIINKPGPLDDKEFKEIKKHPVYGYQIVNEIKLEDQDIPQAVLQHHEHQDGNGYPLGIRGDRINSFARIIAVADVFDALTSDRAYRPRMSLLQAVDIIIKSSCGQLDPLASRRLLSYVLDITTGEKVILSTGEEATVILKNEVDPARPLVRIGDNFLDLKTNRDVFIKDFAR
MGSDKIHHHHHHMFYPEKRDGFSRTGKFEVEGRTVQTPAILEVGEIPEWDFGLAPTSLKFISEELYSRLRPINEEVEILTSLHLLSPRQLVQVFEDLSKEGVSPKPLYAASSALPSNVSLLIYLGADLVDNVLAIAKAYSGIYFLGEVEVEISKLRRLPCNCIHCRNRVVDEVENLLETTAKHNTEMLRMEVEKCRRLILNEELRNYVEGKVKLNPEFTAALRLSDSLRNHSTFPRFRKSRCNFSALESSSRFEVRYFFERALECYKPFSDTVLLLPCTARKPYLTSRTHRALRSKVKVNVNEIIISSPLVVPREFELLYPAVNYDTPVTGHWSEEEVSFVAGWLKRFIEKGGFRKVVAHVTGGYRKVVERVEDEVEAEVVYTAEKDVLSDESIERLKQEIESKGKVDLYRRILEHMLSYQFGITWSGKVAGRYPELELLEGKKRLARVDRIYGMLDIYEKIAAYLLEKNIYTVEIGDFEVKGTIFAGGVLRADEKIRPNDVVVFHNSRIFGVGLAAMSGKEMAGSEKGIAINVKRKFSF
MGSDKIHHHHHHMGCEIDRDASGLHSLQGLAGRDVSVAAGAKVGWSFMGTGTIATELVVEAIRSVGHSPLWVVSRSKRDADHFAEDLGIPHSTTELGPVLQDPSVGFAYISASLKRRPHYITAAAGAGKHILCDGPISCTSKTASALVELCRGARASLVVNQRLRASTIHQTMRRLVRDGDIGAVQSIVLIRGGPYQAPPNRSARDFNDGSGIYLDVSVENIDLARFLTGAEPVEATALITSEKMVPSQATYILRLSDGSLFQAHESFRTADIESMVLVAGDRGALIAQGTLNGRTSGTLMRRADGRNEAVPVRDHDVHLATVREFANTRGQTPSWLSQGTDSVIALRTVEAVAMSAKKRRTVPIQG
MGSDKIHHHHHHMGHYEHKTKEELLEIVCKLEKKVEGLSSELDSLKKGRFRERYSTRILDALPDMLTVFDHNANIVELASSPTTNHVEGTTSDSIINSNVKDIVPEEAYESVRHNMDKVIHTGKSSTAEHSLMLDGVLHHYENRIFPLDDQYLLCMCRDVSQETEMAKINETQRSEIVRLNSLMNDILNNIPVYLFVKDTGNDFRYLYWNKAFAEHSGISVQRAVGSTDADIFPDKKDAEHFREDDLKVMKLGRIEYLENYTTMSGEVRTVTTMKTVVPSGGQHPYIIGVSWDVTEIKKTEKELIAARIKAEEADRMKSSFLANMSHEIRTPLNAIVGFSKLIIEADNECEKRQYADIVEHNSTVLLNLFNDILDLSALEAGSLELSYHPVRLKDICLQLYELHVKSVKPEVRLVLDEVDSQLCIQGDWERISQVLVNLITNAIKFTSVGEIHFGFQKKADMVQFYMSDTGKGIPAERVATIFQRFGKIDDFVQGTGLGLTICRMLVEKMGGRIWVRSKQGEGTVFYFTLPMAK
MGSDKIHHHHHHMGIHLDFGISPKTFRQTYLYQKPKLFKGAVRNLEAASCKYINEIYQRADPTAPLFHLRKKGAIVPKEEYVESFDDLGKTRYRFIKSVIYEHMKNGASLVYNHINNEPFSDHIARQVARFAGAHTIVSGYLAFGSDESYKNHWDTRDVYAIQLFGKKRWQLTAPDFPMPLYMQQTKDTDISIPEHIDMDIILEAGDVLYIPRGWWHRPIPLGCETFHFAVGTFPPNGYNYLEWLMKKFPTIESLRHSFSDWEQDRTRINDTAAQIAAMIADPVNYEAFSEDFLGKERTDTAFHLEQFANPNATPLSDDVRLRLNANNLDTLEKGYLIGNGMKISVDELGKKVLEHIGKNEPLLLKNLLVNFNQAKHEEVRKLIYQLIELDFLEIL
MGSDKIHHHHHHMGKKYDVYGVGNALVDIEYEVSPELLQELKIDKGVMTLLDEDSQNHILENLKNLHCHKSCGGSAANTMVAISQLGGKAFYSCKVANDEFGDFYIEDLLNSQVDTNLKNGDRQSGITGKCLVLVTPDADRTMNTFLGITEKFSTQELVSSALADSEYIYIEGYLVTSPTAKEAAIKAREIAEKAGVKTAMSLSDYNMVKFFKDGLLDIIGPGLDLIFANESEALELADTQDFQVAVDKLKTLSKKFAITRGSKGSVVFDGQELIEIAAPQVKAIDTVGAGDMYAGAFLYGITQSMSYEEAGKLASTAASKIVTSYGPRLKTEELKALVSA
MGSDKIHHHHHHMGLLAGVEISDVPLKKIVTVCLAVLVAGCAGPQTQELLGSAIVAAPVTEIAGNHSIFIATTRKKSDDPNKVFDGERSATLNYARVNVTVPGLHQTGQIERRSRGKSDDPAKYFMASEVVGYDTQPKFSSALNADIAARGGRVMVFVHGYNTGFDDAVYRLTQIVHDSGYPGTPVLFSWASGAKTTDYVYDKESASAARDQLEVTLRMLQQSGARRIDIVAHSMGTWVTMETLRQMAISGDRDLGGKLGDVVLASPDIDVDVFKSQMRRYGKPDKPFILLLSDDDRALRLSGLIAGSRPRVGDYKDAADLASYGVTVVDLSEVKGSDSFNHTKFADNPVLVKMIGQRLREDDGFASDRDVTDRISLLGQ
MGSDKIHHHHHHMGMQARYDGVAVCAPITVPYVRFSPESAHWWTGAALRALGQKTGLNAGDIDGFCFASFSSAPDTVVGMVQHLGLSPRWMDHIPTGGASGIMALRRAARAVQCGDAEVVACVAADTNQIDSYRQTLAGFSRFSQDATYPYGFGGPNATFALITDNFMRQFGTTRETFGKLCVAQRENALSNPLALMKKPLTIEHYMNARPISDPVHLFDCVMPCAGAEAFLVTTPDKAEQLGLSTARILSTIERHNAFADDTVQFRGGWERDQEALWDRAGCGPGDVQCVQVYDDYPVIVAMQLADLGFCSKPGLNDFIAANEFTISGSLPLNTNGGQLSAGQAGAAGGFQNVTEGLRQILQCPLGEQVSDAHRALVSGFGLVNYDRGTCTGAAVLQREALR
MGSDKIHHHHHHMGSLADTLRDRRQKLARLIDFPAILWSGGSNARNFPANRFPFRASSHFLYFAGLPLPNAAIHLEAGKLTLFIDDPAPGSALWHGETPKREEIAETIGADAAKPLSELTPFLAGAATIAVQDATTWTQQSQLLNRWVLPQSQPEGIDLELTKAIVTLRLIHDAGALAELRKAATVSVAAHKAGMVATANAKIEAEVRAAMESVFIAHNMTTAYNSIVTVHGEVLHNEQYHHPLQPGDLLLADVGGETELGWAADITRTWPVSGKFSPTQRDIYDVVLAAHDTCIANILPGVEYAEIHLVGARVIAEGLVNLGILRGNPEDLVEKDAHALFFPHGIGHLLGLDVHDMEDLGDLAGYEEGKKRSDRFGLGYLRLNRPLRTGMLVTIEPGFYQVPAILNDEKIRSRYQYTVNWERLSQFADVRGIRIEDDVLVTDTGSEVLTAALPNDADTVEHLVNKI
